Holding throughout (assay type): cell-based
Assay [1] has as its target T1, SDF-1 (Homo sapiens, UniProt P48061).
T1 construct: purchased PeproTech
The experiment in a line: In vitro T cell adhesion to VCAM-1 induced by SDF-1 under shear flow. The note with it: 10 μg/ml peptide; T cells on VCAM-1 under shear flow. As for the experimental part: (§1) 50 ml of blood was added to 10 ml of a solution of Dextran T-500 (6% w/v) in PBS (phosphate buffer saline), and 7 ml of citrate buffer (25 grams citrate, 8 grams citric acid in 500 ml PBS). The solution was incubated for 30 minutes at 25° C. 10 ml of Ficoll 1077 was added to the bottom of the tube. The tube was then centrifuged at 2,000 rotations per minute for 30 minutes at 18° C. (with the brake mode of the centrifuge off). The interphase was collected and washed twice with 8 ml PBS with 5% FCS (fetal calf serum), followed by centrifugation at 1,400 rotations per minute for 5 minutes at 18° C. The cells were re-suspended in PBS with 5% FCS at a concentration less then 10^8 per ml. […]
(§2) In order to perform lysis of the erythrocytes, the red pellet was re-suspended in 5 ml of lysis-buffer (155 mM NH4Cl, 10 mM KHCO3, 0.1 mM EDTA, X0.1 PBS) for 4 minutes, followed by immediate addition of 50 ml of PBS with EDTA. […] The cells were ready for use in experiments after overnight incubation at 37° C. […]
(§3) The plates were then assembled as the lower wall of a parallel wall flow chamber and mounted on the stage of an inverted microscope. […] The number of adherent cells resisting detachment by the elevated shear forces was determined after each interval by analysis of videotaped cell images, and was expressed as the percent of originally settled cells. […]

Assay [2] addresses T2, Eotaxin (Homo sapiens, UniProt P51671).
T2 construct: purchased PeproTech
The experiment in a line: In vitro T cell adhesion to VCAM-1 induced by eotaxin under shear flow. Conditions: for Inhibition of chemokine-dependent T cell adhesion: Eotaxin: 10 μg/ml peptide, T cells on VCAM-1 under shear flow. How it is done:
(§4) 50 ml of blood was added to 10 ml of a solution of Dextran T-500 (6% w/v) in PBS (phosphate buffer saline), and 7 ml of citrate buffer (25 grams citrate, 8 grams citric acid in 500 ml PBS). The solution was incubated for 30 minutes at 25° C. 10 ml of Ficoll 1077 was added to the bottom of the tube. The tube was then centrifuged at 2,000 rotations per minute for 30 minutes at 18° C. (with the brake mode of the centrifuge off). The interphase was collected and washed twice with 8 ml PBS with 5% FCS (fetal calf serum), followed by centrifugation at 1,400 rotations per minute for 5 minutes at 18° C. The cells were re-suspended in PBS with 5% FCS at a concentration less then 10^8 per ml. 2 ml of the cell solution were applied on a poly(methyl methacrylate) nylon wool column which was pre-soaked in PBS-5% FCS, and then incubated for 45 minutes at 25° C. Each column was washed with 8 ml PBS-5% FCS and the cells (T-cells and erythrocytes) were eluted by 50 ml of 5 mM EDTA (ethylenediaminetetraacetic acid) in PBS. A red pellet was obtained by centrifugation at 1,400 rotations per minute for 5 minutes at 4° C. (with the brake on).
(§5) In order to perform lysis of the erythrocytes, the red pellet was re-suspended in 5 ml of lysis-buffer (155 mM NH4Cl, 10 mM KHCO3, 0.1 mM EDTA, X0.1 PBS) for 4 minutes, followed by immediate addition of 50 ml of PBS with EDTA. Following centrifugation at 1,400 rotations per minute for 5 minutes at 4° C., the pellet was washed again with 50 ml PBS-EDTA and re-centrifuged under the same conditions. […] The cells were ready for use in experiments after overnight incubation at 37° C. […]
as §3

The target of assay [3] is T3, I-TAC (Homo sapiens, UniProt O14625).
T3 construct: purchased PeproTech
T3 sequence (O14625 22-94): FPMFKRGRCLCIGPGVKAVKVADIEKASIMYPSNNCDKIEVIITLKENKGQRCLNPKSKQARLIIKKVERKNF
The experiment in a line: In vitro T cell adhesion to VCAM-1 induced by I-TAC under shear flow. The note with it: for Inhibition of chemokine-dependent T cell adhesion: I-TAC: 10 μg/ml peptide, T cells on VCAM-1 under shear flow; for T cell adhesion induced by I-TAC (result in words): T cells on VCAM-1. As for the experimental part:
as §4
(§6) In order to perform lysis of the erythrocytes, the red pellet was re-suspended in 5 ml of lysis-buffer (155 mM NH4Cl, 10 mM KHCO3, 0.1 mM EDTA, X0.1 PBS) for 4 minutes, followed by immediate addition of 50 ml of PBS with EDTA. Following centrifugation at 1,400 rotations per minute for 5 minutes at 4° C., the pellet was washed again with 50 ml PBS-EDTA and re-centrifuged under the same conditions. A white pellet was obtained and re-suspended in RPMI medium with 10% FCS, L-glutamine, sodium pyruvate and antibiotics at a concentration of 3×10^6 cells per ml. The cells were incubated for 2 hours at 37° C., followed by collection of the non-adherent cells. The cells were ready for use in experiments after overnight incubation at 37° C.
(§7) 10 μg/ml of human VCAM-1 and 2 μg/ml of a chemokine (intact MIG, IP-10, I-TAC, MCP-1, RANTES, SDF-1 (stromal cell-derived factor-1), BCA-1 (B lymphocyte chemoattractant-1), IL-8 (interleukin-8) or eotaxin, or heat-inactivated SDF-1 as a control) were dissolved in PBS buffered with 20 mM bicarbonate (pH 8.5), and incubated in polystyrene plates overnight at 4° C. Alternatively, 10 μg/ml of the chemokine was used, and the plates were incubated for 30 minutes at room temperature. […]
as §3

Assay [4] deals with T4, MIG (Homo sapiens, UniProt Q07325).
T4 construct: purchased PeproTech
T4 sequence (Q07325 23-125): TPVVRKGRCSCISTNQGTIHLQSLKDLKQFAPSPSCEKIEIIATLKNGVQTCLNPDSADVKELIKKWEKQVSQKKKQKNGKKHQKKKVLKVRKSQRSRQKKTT
Nature of the assay: In vitro T cell adhesion to VCAM-1 induced by MIG under shear flow. Conditions: for Inhibition of chemokine-dependent T cell adhesion: MIG: 10 μg/ml peptide, T cells on VCAM-1 under shear flow. As for the experimental part: as §4, §5, §3

Assay [5] concerns the target T5, MCP-1 (Homo sapiens, UniProt P13500).
T5 construct: purchased PeproTech
Nature of the assay: In vitro T cell adhesion to VCAM-1 induced by MCP-1 under shear flow. Conditions: for Inhibition of chemokine-dependent T cell adhesion: MCP-1: 10 μg/ml peptide, T cells on VCAM-1 under shear flow; for T cell adhesion induced by MCP-1 (result in words): T cells on VCAM-1. As for the experimental part: as §4, §6, §7, §3

For assay [6], the target named is T6, IL-8 (Homo sapiens, UniProt P10145).
T6 construct: purchased PeproTech
T6 sequence (P10145 21-99): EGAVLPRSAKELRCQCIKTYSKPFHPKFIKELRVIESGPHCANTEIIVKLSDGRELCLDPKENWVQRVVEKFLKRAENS
Nature of the assay: In vitro T cell adhesion to VCAM-1 induced by IL-8 under shear flow. Conditions: 10 μg/ml peptide; T cells on VCAM-1 under shear flow. How it is done:
as §1, §2, §3

Assay [7] concerns the target T7, RANTES (Homo sapiens, UniProt P13501).
T7 construct: purchased PeproTech
T7 sequence (P13501 24-91): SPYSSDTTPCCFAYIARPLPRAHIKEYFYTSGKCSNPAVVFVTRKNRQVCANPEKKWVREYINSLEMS
Nature of the assay: In vitro T cell adhesion to VCAM-1 induced by RANTES under shear flow. Conditions: for Inhibition of chemokine-dependent T cell adhesion: RANTES: 10 μg/ml peptide, T cells on VCAM-1 under shear flow; for T cell adhesion induced by RANTES (result in words): T cells on VCAM-1. As for the experimental part: as §4, §6, §7, §3

Assay [8] concerns the target T8, IP-10 (Homo sapiens, UniProt P02778).
T8 construct: purchased PeproTech
T8 sequence (P02778 22-98): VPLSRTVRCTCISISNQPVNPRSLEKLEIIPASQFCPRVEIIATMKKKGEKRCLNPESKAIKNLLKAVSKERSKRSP
Nature of the assay: In vitro T cell adhesion to VCAM-1 induced by IP-10 under shear flow. Conditions: for Inhibition of chemokine-dependent T cell adhesion: IP-10: 10 μg/ml peptide, T cells on VCAM-1 under shear flow. How it is done: as §4, §5, §3

In assay [9] the target is T9, BCA-1 (Homo sapiens, UniProt O43927).
T9 sequence (O43927 23-109): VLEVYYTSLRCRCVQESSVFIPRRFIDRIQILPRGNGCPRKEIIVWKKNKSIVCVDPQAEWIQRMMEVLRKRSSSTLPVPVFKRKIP
Nature of the assay: In vitro T cell adhesion to VCAM-1 induced by BCA-1 under shear flow. Conditions: 10 μg/ml peptide; T cells on VCAM-1 under shear flow. As for the experimental part: as §1, §2, §3

T2 sequence (P51671 24-97): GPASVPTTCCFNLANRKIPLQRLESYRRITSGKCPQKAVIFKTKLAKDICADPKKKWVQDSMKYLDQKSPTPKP
T5 sequence (P13500 24-99): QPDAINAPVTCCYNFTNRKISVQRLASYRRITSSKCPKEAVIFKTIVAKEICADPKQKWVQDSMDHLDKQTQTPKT
T1 sequence (P48061 22-89 limits assumed): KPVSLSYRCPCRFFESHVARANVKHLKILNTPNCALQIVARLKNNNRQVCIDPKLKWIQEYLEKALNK

With “LDYPIPQTVLHH [BKT-P46, reference compound]”, in [1], the “Inhibition of chemokine-dependent T cell adhesion: SDF-1” value is recorded as “− (− = no inhibition)”. The “Inhibition of chemokine-dependent T cell adhesion: Eotaxin” value in assay [2] was “− (− = no inhibition)”. Also, in [3], the “Inhibition of chemokine-dependent T cell adhesion: I-TAC” value is listed as “++ (++ = 100% inhibition)” and the “T cell adhesion induced by I-TAC (result in words)” value is “inhibited”. Besides, the “Inhibition of chemokine-dependent T cell adhesion: MIG” value in [4] is “++ (++ = 100% inhibition)”. Further, the “T cell adhesion induced by MIG (result in words)” value in [4] (T cells on VCAM-1) is reported as “inhibited”. In [5], the “Inhibition of chemokine-dependent T cell adhesion: MCP-1” value is reported as “++ (++ = 100% inhibition)” and the “T cell adhesion induced by MCP-1 (result in words)” value is given as “inhibited”. The “Inhibition of chemokine-dependent T cell adhesion: IL-8” value in assay [6] was “− (− = no inhibition)”. In assay [7], the “Inhibition of chemokine-dependent T cell adhesion: RANTES” value is recorded as “++ (++ = 100% inhibition)” and the “T cell adhesion induced by RANTES (result in words)” value is “inhibited”. In addition, the “Inhibition of chemokine-dependent T cell adhesion: IP-10” value in assay [8] is listed as “− (− = no inhibition)”.

For the sequence “SIPSHSIHSAKA [BKT-P2, reference compound]”, the “Inhibition of chemokine-dependent T cell adhesion: SDF-1” value in [1] was “− (− = no inhibition)”. Moreover, in [2], the “Inhibition of chemokine-dependent T cell adhesion: Eotaxin” value is reported as “++ (++ = 100% inhibition)”. In addition, the “T cell adhesion induced by eotaxin (result in words)” value in assay [2] (T cells on VCAM-1) is reported as “inhibited”. Also, the “Inhibition of chemokine-dependent T cell adhesion: BCA-1” value in assay [9] is “− (− = no inhibition)”. Besides, in [3], the “Inhibition of chemokine-dependent T cell adhesion: I-TAC” value is reported as “++ (++ = 100% inhibition)” and the “T cell adhesion induced by I-TAC (result in words)” value is recorded as “inhibited”. The “Inhibition of chemokine-dependent T cell adhesion: MIG” value in [4] is given as “− (− = no inhibition)”. Besides, in assay [5], the “Inhibition of chemokine-dependent T cell adhesion: MCP-1” value is on record as “++ (++ = 100% inhibition)” and the “T cell adhesion induced by MCP-1 (result in words)” value is “inhibited”. Also, in [7], the “Inhibition of chemokine-dependent T cell adhesion: RANTES” value is on record as “++ (++ = 100% inhibition)” and the “T cell adhesion induced by RANTES (result in words)” value is on record as “inhibited”. Moreover, in assay [8], the “Inhibition of chemokine-dependent T cell adhesion: IP-10” value is “++ (++ = 100% inhibition)”. In addition, the “T cell adhesion induced by IP-10 (result in words)” value in [8] (T cells on VCAM-1) was “inhibited”.
